Source: patent US20250250357A1 (NANJING ZAIMING PHARMACEUTICAL, published 2025)

B1: S009-F1.62.9 (antibody, human IgG1, kappa, V domains shown)
VH: EVQLQQSGADLVKPGASVKLSCTVFGLNFKDTFMHWVRQRPEQGLEWIGRIDPANDNSIYGPKFQDKATITADTSSNTAYLHLSSLTSEDTAVYYCLYFDNWGHGTTLTVSS
VL: DIVMTQAASSEPVTPGESVSISCRSDKSLLHSNGHNYLYWFLQRPGQSPHLLIYRMSNLASGVPDRFSGSGSGTAFTLRISRVEAEDVGVYYCMQHLEYPLTFGAGTKLELKR
notes: Human-murine chimeric antibody, human IgG1/kappa constant regions
B2: S009-F1.59.1 (antibody, human IgG1, kappa, V domains shown)
VH: EVKLEGSGGGLVQPGGSMMLSCVATGFTFSSYWMNWVRQSPDRGLEWVAEIRLKSNGFAAFYAESVKGRFTISRDDSKSSVYLQMNNLRTEDTGIYYCTYFVHWGQGILVTVSE
VL: DIVLTQSPTSLAVSLGQRATISCRTSESVEYFGTILIQWYQQKPGQPPKLLIFGASNVESGVPARFSGSGSGTDFSLNIHPVEEEDIAMYFCQQNRKVPYTFGGGTTLELKR
notes: as for B1
B3: S009-F1.25.10 (antibody, human IgG1, kappa, V domains shown)
VH: EVQLQQSGPELVKPGASLKISCKASGYSFTDYTMNWVKQSHGKNLEWIGLFNPYNGGISYNQKFKGKATLTVDKSSNTAYMELLSLTSDDSAVYFCARDGRGGFYAMDYWGQGTSVTVSS
VL: DIQMTQTTSSLSASLGDRVTISCRASQDISIYLNWYQQKPDGPVKLLIYYTSRLHSGVPSRFSGSGSGTDFSLTISNLEQEDIATYFCQQGYTLPPWTFGGGTKLEIKR
notes: as for B1
B4: S009-F1.35.24 (antibody, human IgG1, kappa, V domains shown)
VH: EVQLQQSEPELVKPGASVRISCKASGYSFTDYYMHWVKQSPENRLEWIGEINPSTGGTSYNPKFKDKATLTVDKSSSTAYMQLKSLTSEESAVYYCTRYHYYGSSSYVMDYWGQGTSVTVSS
VL: QIVLTQSPAILSASPGERVTMTCSASSSVYHMHWFQQKSGTSPKRWVYDTSKLASGVPARFSGSGSGTSYSLTISSMEAEDAATYYCQHWRTNPLTFGAGTKLELKR
notes: as for B1
B5: S009-F1.7.14 (antibody, human IgG1, kappa)
heavy: not shown
light: QIVLTQSPAIMSASPGEKVTISCSASSSVSYMYWYQQKPGSSPKPWISRTSNLASGVPARFSGSGSGTSYSLTISSMEAEDAATYYCQQYHSYPPTLGAGTKLELKRTVAAPSVFIFPPSDEQLKSGTASVVCLLNNFYPREAKVQWKVDNALQSGNSQESVTEQDSKDSTYSLSSTLTLSKADYEKHKVYACEVTHQGLSSPVTKSFNRGEC
notes: as for B1
B6: S009-F7.2.3 (antibody, human IgG1, kappa, V domains shown)
VH: ELQLVESGGDLVKPGGSLKLSCAASGFTFSSNGMSWLRQTPDKRLEWVATISSGGRYTYYPDSVKGRFTISRDNAKNTLYLQMSSLKSEDTAMYYCARRGIYDYFDCWGQGTTLTVSS
VL: DIQMTQSPASLSISVGETVTITCRASENIHSSLAWYQQKQGKSPQLLVYAATNLADGVPSRFSGSGSGSQYSLKINSLQSEDFGTYYCQHFWGTPWTFGGGTKLDIKR
notes: human-murine chimeric antibody, human IgG1/kappa constant regions
B7: S009-F1.2.12 (antibody, human IgG1, kappa, V domains shown)
VH: QVQLKQTGPGLVQPSQSLSITCTVSGFSLTNYAVHWVRQSPGKGLEWLGVIWSGGATDYNTVFISRLSISKDNSKSQVFFKVNSLQVDDTAIYYCARTGSGYAMDYWGQGTSVTVSS
VL: DIVLTQSPATLSVTPGDRVSLSCRTSHNVNTYLHWYQQKSHESPRLLIKYASQSISEIPSRFSGSGSGTNFTLSINSVETEDFGMYFCHQTNRWPLTFGAGTKLELKR

Key:
[1] = target: T1, human MSLN-R3-his protein (human, UniProt Q13421 487-598); assay: ELISA, coated MSLN-R3
T1 construct: Region 3 of human MSLN, His-tagged; also called human MSLN-R3 protein; hMSLN-R3-his; not shown: His tag

[2] = target: T2, human MSLN-R3-3 polypeptide (human); assay: ELISA, coated MSLN-R3-3;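 further: chimeric antibodies in serial dilution bound to plate-coated antigen for 2 h at 37 °C, with a negative control antibody alongside, and TMB colour development stopped with HCl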
T2 construct: also called human MSLN-R3-3 protein; hMSLN-R3-3
Description: The plate was sealed with a plastic film and incubated at 4° C. overnight. The next day, the plate was washed twice with PBST, and a blocking buffer [PBS+2% (w/w) BSA] was added for blocking at room temperature for 2 h. The blocking buffer was discarded, and a chimeric antibody or negative control antibody serially diluted from 100 nM was added at 50 μL/well. After incubation at 37° C. for 2 h, the plate was washed 3 times with PBST. […] After incubation at 37° C. for 2 h, the plate was washed 5 times with PBST. A TMB substrate was added at 50 μL/well for incubation at room temperature for 5-10 min, and then a stop solution (1.0 N HCl) was added at 50 μL/well.

[3] = target: T3, human MSLN-R2-his protein (human, UniProt Q13421 391-486); assay: ELISA, coated MSLN-R2;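 further: chimeric antibodies bound to blocked coated plates for 2 h at 37 °C, TMB colour development stopped with HCl, with a negative control antibody for comparison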
T3 construct: Region 2 of human MSLN, His-tagged; also called human MSLN-R2 protein; hMSLN-R2-his; not shown: His tag

[4] = target: T4, human MSLN-R3 protein (Met487-Ser606 of NCBI AAH09272.1) expressed on HEK293T-hMSLN-R3 cells (human, UniProt Q13421 487-606); assay: FACS on HEK293T-hMSLN-R3 cells;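 further: flow cytometry binding of test chimeric antibodies to cells after 2 h incubation on ice, with values derived from the mean fluorescence intensity of the cells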
T4 construct: also called Region3
Description: The desired cells were expanded to the logarithmic growth phase in a T-75 cell culture flask. […] After the cells from the previous step were subjected to cell counting, the cell pellet was resuspended to 2×10⁶ cells/mL in a blocking buffer of [PBS+2% (w/w) BSA] and added into a 96-well FACS reaction plate at 50 μL/well. A chimeric antibody (a sample to be tested) was added at 50 μL/well, and the plate was incubated on ice for 2 h. […] After the plate was centrifuged and washed 5 times with a PBST buffer, assay and analysis were performed by FACS (FACS CantoII, purchased from BD). Data analysis was performed by software (Flowjo) to obtain the mean fluorescence intensity (MFI) of the cells.

[5] = target: T5, human MSLN protein endogenously expressed on OVCAR3 tumor cells (human, UniProt Q13421 296-598); assay: FACS on OVCAR3 cells;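 further: flow cytometry binding of test antibodies to cells, 2 h incubation on ice, readout as cell mean fluorescence intensity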
T5 construct: whole, on cells; Endogenous target on OVCAR3 cells; kept apart from the recombinant full-length construct; also called mesothelin
T5 sequence (Q13421 other isoform, or with tags, fused parts or gaps): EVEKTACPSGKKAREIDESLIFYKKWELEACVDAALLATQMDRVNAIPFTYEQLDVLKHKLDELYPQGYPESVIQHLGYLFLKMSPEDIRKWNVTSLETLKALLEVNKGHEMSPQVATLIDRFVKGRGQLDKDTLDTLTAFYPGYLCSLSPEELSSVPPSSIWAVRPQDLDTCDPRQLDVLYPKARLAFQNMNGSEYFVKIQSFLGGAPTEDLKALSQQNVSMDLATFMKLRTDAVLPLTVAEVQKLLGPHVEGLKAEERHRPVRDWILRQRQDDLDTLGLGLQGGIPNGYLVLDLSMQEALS

T1 sequence (Q13421 495-606): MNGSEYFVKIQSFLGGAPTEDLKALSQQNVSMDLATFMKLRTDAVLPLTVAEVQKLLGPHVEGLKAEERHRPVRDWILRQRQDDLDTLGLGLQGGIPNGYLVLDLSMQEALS
T3 sequence (Q13421 other isoform, or with tags, fused parts or gaps): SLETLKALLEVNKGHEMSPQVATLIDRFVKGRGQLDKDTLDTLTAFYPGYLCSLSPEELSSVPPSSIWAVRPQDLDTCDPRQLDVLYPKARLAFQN
T4 sequence (Q13421 495-614): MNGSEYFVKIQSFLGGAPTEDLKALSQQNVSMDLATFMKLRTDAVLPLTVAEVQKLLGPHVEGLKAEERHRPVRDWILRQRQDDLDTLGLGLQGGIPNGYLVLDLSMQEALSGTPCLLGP

| OD450 at 0.0001 nM [1] | OD450 at 0.001 nM [1] | OD450 at 0.01 nM [1] | OD450 at 0.1 nM [1] | OD450 at 1 nM [1] | OD450 at 10 nM [1] | OD450 at 100 nM [1] | OD450 at none (no antibody) [1] | OD450 at 0.0001 nM [2] | OD450 at 0.001 nM [2] | OD450 at 0.01 nM [2] | OD450 at 0.1 nM [2] | OD450 at 1 nM [2] | OD450 at 10 nM [2] | OD450 at 100 nM [2] | OD450 at none (no antibody) [2] | OD450 at 0.0001 nM [3] | OD450 at 0.001 nM [3] | OD450 at 0.01 nM [3] | OD450 at 0.1 nM [3] | other results | Binder |
| --- | --- | --- | --- | --- | --- | --- | --- | --- | --- | --- | --- | --- | --- | --- | --- | --- | --- | --- | --- | --- | --- |
| 0.04 OD450 | 0.06 OD450 | 0.07 OD450 | 0.26 OD450 | 1.06 OD450 | 2 OD450 | 2.32 OD450 | 0.05 OD450 | 0.06 OD450 | 0.07 OD450 | 0.07 OD450 | 0.07 OD450 | 0.06 OD450 | 0.07 OD450 | 0.13 OD450 | 0.07 OD450 | 0.03 OD450 | 0.05 OD450 | 0.04 OD450 | 0.06 OD450 | OD450 at 1 nM [3]: 0.04 OD450; OD450 at 10 nM [3]: 0.05 OD450; OD450 at 100 nM [3]: 0.06 OD450; OD450 at none (no antibody) [3]: 0.04 OD450 | B1 |
| 0.05 OD450 | 0.06 OD450 | 0.17 OD450 | 1 OD450 | 1.62 OD450 | 2.05 OD450 | 2.51 OD450 | 0.05 OD450 | 0.06 OD450 | 0.06 OD450 | 0.06 OD450 | 0.06 OD450 | 0.07 OD450 | 0.07 OD450 | 0.18 OD450 | 0.07 OD450 | 0.03 OD450 | 0.04 OD450 | 0.06 OD450 | 0.05 OD450 | OD450 at 1 nM [3]: 0.04 OD450; OD450 at 10 nM [3]: 0.05 OD450; OD450 at 100 nM [3]: 0.06 OD450; OD450 at none (no antibody) [3]: 0.04 OD450 | B2 |
| 0.05 OD450 | 0.05 OD450 | 0.09 OD450 | 0.34 OD450 | 1.44 OD450 | 2.07 OD450 | 2.81 OD450 | 0.05 OD450 | 0.07 OD450 | 0.13 OD450 | 0.59 OD450 | 1.82 OD450 | 2.17 OD450 | 2.41 OD450 | 2.78 OD450 | 0.07 OD450 | 0.04 OD450 | 0.04 OD450 | 0.04 OD450 | 0.04 OD450 | OD450 at 1 nM [3]: 0.04 OD450; OD450 at 10 nM [3]: 0.05 OD450; OD450 at 100 nM [3]: 0.05 OD450; OD450 at none (no antibody) [3]: 0.05 OD450 | B3 |
| 0.05 OD450 | 0.05 OD450 | 0.05 OD450 | 0.05 OD450 | 0.05 OD450 | 0.05 OD450 | 0.06 OD450 | 0.05 OD450 | 0.07 OD450 | 0.07 OD450 | 0.07 OD450 | 0.08 OD450 | 0.07 OD450 | 0.07 OD450 | 0.15 OD450 | 0.07 OD450 | 0.04 OD450 | 0.05 OD450 | 0.05 OD450 | 0.04 OD450 | OD450 at 1 nM [3]: 0.05 OD450; OD450 at 10 nM [3]: 0.05 OD450; OD450 at 100 nM [3]: 0.06 OD450; OD450 at none (no antibody) [3]: 0.05 OD450 | B4 |
| 0.05 OD450 | 0.05 OD450 | 0.04 OD450 | 0.05 OD450 | 0.05 OD450 | 0.07 OD450 | 0.1 OD450 | 0.05 OD450 | 0.07 OD450 | 0.07 OD450 | 0.07 OD450 | 0.07 OD450 | 0.07 OD450 | 0.13 OD450 | 0.72 OD450 | 0.07 OD450 | 0.04 OD450 | 0.04 OD450 | 0.05 OD450 | 0.04 OD450 | OD450 at 1 nM [3]: 0.05 OD450; OD450 at 10 nM [3]: 0.05 OD450; OD450 at 100 nM [3]: 0.11 OD450; OD450 at none (no antibody) [3]: 0.05 OD450 | B5 |
| – | – | – | – | – | – | – | – | – | – | – | – | – | – | – | – | – | – | – | – | Maximum mean fluorescence intensity [4]: 33; binding result [4]: no binding; EC50 [5]: 1.74 nM; Maximum mean fluorescence intensity [5]: 22800 | B6 |
| 0.05 OD450 | 0.06 OD450 | 0.05 OD450 | 0.05 OD450 | 0.05 OD450 | 0.06 OD450 | 0.06 OD450 | 0.06 OD450 | 0.06 OD450 | 0.08 OD450 | 0.06 OD450 | 0.07 OD450 | 0.07 OD450 | 0.08 OD450 | 0.16 OD450 | 0.08 OD450 | 0.05 OD450 | 0.05 OD450 | 0.05 OD450 | 0.06 OD450 | OD450 at 1 nM [3]: 0.1 OD450; OD450 at 10 nM [3]: 0.3 OD450; OD450 at 100 nM [3]: 1.44 OD450; OD450 at none (no antibody) [3]: 0.05 OD450 | B7 |
